Assay results: US20090130105A1 (Biogen, published 2009)

Legend:
Experiment in all cases: SPR, Fab over captured mutant
[1] = target: T1, hIGF-1R-Fc mutant SD015 (H464E) (human, UniProt P08069 31-933)
T1 construct: not shown: human IgG1 Fc, C-terminal tag
Method: (§1) Surface plasmon resonance (SPR) experiments were performed on a Biacore 3000 instrument set to 25° C. […] The antibody sensorchip surfaces were prepared by injecting each antibody (diluted 100 μg/mL in 10 mM Acetate, pH 4.0) over EDC/NHS-activated sensorchip surfaces according to the standard protocol of the manufacturer. […] Both hIGF-1R-Fc and mIGF-1R-Fc proteins oligomerize due to the incorporation of two separate homodimeric regions (IGF-1R and IgG1-Fc). […] After, completion of the receptor-Fc loading step, flow rates were elevated to 5 μl/min. […] Dissociation was measured for 7 minutes after the antibody injections were complete. Finally, the flow rate was elevated to 30 μL/min and the chip surfaces were regenerated by 2×10 μL injections of 0.1 M glycine, pH 2.

[2] = target: T2, hIGF-1R-Fc mutant SD102 (E459A, S460A) (human, UniProt P08069 31-933)
T2 construct: not shown: human IgG1 Fc, C-terminal tag
Method: as §1

[3] = target: T3, hIGF-1R-Fc mutant SD103 (D461A, V462T) (human, UniProt P08069 31-933)
T3 construct: not shown: human IgG1 Fc, C-terminal tag
Method: as §1

[4] = target: T4, hIGF-1R-Fc mutant SD104 (H464A) (human, UniProt P08069 31-933)
T4 construct: not shown: human IgG1 Fc, C-terminal tag
Method: as §1

[5] = target: T5, hIGF-1R-Fc mutant SD108 (H480E) (human, UniProt P08069 31-933)
T5 construct: not shown: human IgG1 Fc, C-terminal tag
Method: as §1

[6] = target: T6, hIGF-1R-Fc mutant SD109 (Y482A, R483W) (human, UniProt P08069 31-933)
T6 construct: not shown: human IgG1 Fc, C-terminal tag
Method: as §1

[7] = target: T7, hIGF-1R-Fc mutant SD110 (E533H) (human, UniProt P08069 31-933)
T7 construct: not shown: human IgG1 Fc, C-terminal tag
Method: as §1

[8] = target: T8, hIGF-1R-Fc mutant SD113 (E570A, I571T) (human, UniProt P08069 31-933)
T8 construct: not shown: human IgG1 Fc, C-terminal tag
Method: as §1

Measured: binding result

T4 sequence (P08069 31-933 H494A): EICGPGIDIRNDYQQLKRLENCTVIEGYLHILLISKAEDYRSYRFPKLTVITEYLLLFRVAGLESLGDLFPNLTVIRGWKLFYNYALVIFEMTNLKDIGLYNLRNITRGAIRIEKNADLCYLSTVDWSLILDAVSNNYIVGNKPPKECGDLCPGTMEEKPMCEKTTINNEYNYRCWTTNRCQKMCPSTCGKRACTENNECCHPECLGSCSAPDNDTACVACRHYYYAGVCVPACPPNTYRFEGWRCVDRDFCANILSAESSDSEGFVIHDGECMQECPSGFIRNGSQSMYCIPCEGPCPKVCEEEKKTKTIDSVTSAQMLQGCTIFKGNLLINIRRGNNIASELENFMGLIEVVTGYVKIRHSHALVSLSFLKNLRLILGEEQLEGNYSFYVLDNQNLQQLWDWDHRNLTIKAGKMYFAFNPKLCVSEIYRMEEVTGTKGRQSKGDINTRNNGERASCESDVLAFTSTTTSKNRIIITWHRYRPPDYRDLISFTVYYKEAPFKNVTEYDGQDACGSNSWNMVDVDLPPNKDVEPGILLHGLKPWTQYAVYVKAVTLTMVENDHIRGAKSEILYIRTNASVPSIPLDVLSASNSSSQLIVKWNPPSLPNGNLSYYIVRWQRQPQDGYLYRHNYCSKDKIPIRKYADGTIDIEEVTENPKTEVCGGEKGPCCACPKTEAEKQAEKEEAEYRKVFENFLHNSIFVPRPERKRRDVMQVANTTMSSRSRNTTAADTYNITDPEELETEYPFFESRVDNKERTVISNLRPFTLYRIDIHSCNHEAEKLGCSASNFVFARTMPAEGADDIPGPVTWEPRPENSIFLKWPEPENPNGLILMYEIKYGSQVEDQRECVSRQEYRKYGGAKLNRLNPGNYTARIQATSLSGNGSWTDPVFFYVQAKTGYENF
T3 sequence (P08069 31-933 D491A/V492T): as the sequence (P08069 31-933 H494A) above, with D461A, V462T, A464H counted along it
T7 sequence (P08069 31-933 E563H): as the sequence (P08069 31-933 H494A) above, with A464H, E533H counted along it
T5 sequence (P08069 31-933 H510E): as the sequence (P08069 31-933 H494A) above, with A464H, H480E counted along it
T6 sequence (P08069 31-933 Y512A/R513W): as the sequence (P08069 31-933 H494A) above, with A464H, Y482A, R483W counted along it
T8 sequence (P08069 31-933 E600A/I601T): as the sequence (P08069 31-933 H494A) above, with A464H, E570A, I571T counted along it
T1 sequence (P08069 31-933 H494E): as the sequence (P08069 31-933 H494A) above, with A464E counted along it
T2 sequence (P08069 31-933 E489A/S490A): as the sequence (P08069 31-933 H494A) above, with E459A, S460A, A464H counted along it

B1: M14-C03 Fab (Fab, V domains shown)
VH: EVQLLESGGGLVQPGGSLRLSCAASGFTFSKYMMSWVRQAPGKGLEWVSYISPSGGLTWYADSVKGRFTISRDNSKNTLYLQMNSLRAEDTAVYYCARDGARGYGMDVWGQGTTVTVSS
VL: DIQMTQSPATLSLSPGERATLSCRASQSVSSYLAWYQQKPGQAPRLLIYDASNRATGIPARFSGSGSGTDFTLTISSLEPEDFAVYYCQQRSNWPPEVTFGPGTKVDIK
notes: Enzymatically derived Fab
no binding (tested: up to 30 nM Fab): all assays above
